Results reported in PMC4113420 (Molecular cell, 2014).

Assays:
Msh2-Msh6 = Msh2-Msh6 (S. cerevisiae, UniProt P25847 1-964; Q03834 1-1242); assay: SPR
SEC = biological target: the molecule itself; assay: SEC

Sequence of Msh2-Msh6 (P25847 whole entry, chain 1 of 2): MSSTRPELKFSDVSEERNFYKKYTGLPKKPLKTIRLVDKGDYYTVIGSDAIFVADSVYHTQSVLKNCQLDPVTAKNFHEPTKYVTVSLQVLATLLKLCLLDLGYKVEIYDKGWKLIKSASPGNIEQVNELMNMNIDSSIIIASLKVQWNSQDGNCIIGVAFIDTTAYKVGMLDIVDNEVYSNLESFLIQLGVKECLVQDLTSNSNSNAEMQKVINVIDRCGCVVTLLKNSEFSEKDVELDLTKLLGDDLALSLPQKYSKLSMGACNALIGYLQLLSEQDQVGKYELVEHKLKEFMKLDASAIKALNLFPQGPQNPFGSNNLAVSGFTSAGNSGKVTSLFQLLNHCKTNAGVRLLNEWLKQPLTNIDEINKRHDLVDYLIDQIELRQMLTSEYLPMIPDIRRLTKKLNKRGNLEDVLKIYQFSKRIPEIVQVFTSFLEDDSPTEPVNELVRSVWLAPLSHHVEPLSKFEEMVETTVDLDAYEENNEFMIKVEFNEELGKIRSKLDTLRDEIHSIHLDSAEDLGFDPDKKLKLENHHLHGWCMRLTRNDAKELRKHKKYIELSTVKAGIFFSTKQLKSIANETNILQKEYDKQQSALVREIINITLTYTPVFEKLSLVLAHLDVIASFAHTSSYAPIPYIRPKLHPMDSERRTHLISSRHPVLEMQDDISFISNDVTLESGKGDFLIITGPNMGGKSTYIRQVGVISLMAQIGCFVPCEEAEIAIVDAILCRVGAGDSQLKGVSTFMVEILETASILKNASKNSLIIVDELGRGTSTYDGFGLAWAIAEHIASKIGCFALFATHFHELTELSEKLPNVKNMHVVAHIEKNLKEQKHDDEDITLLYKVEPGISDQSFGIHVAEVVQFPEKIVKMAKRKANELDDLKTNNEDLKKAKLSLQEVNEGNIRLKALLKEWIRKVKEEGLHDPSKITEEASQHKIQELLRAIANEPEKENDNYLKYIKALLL
Sequence of Msh2-Msh6 (Q03834 whole entry, chain 2 of 2): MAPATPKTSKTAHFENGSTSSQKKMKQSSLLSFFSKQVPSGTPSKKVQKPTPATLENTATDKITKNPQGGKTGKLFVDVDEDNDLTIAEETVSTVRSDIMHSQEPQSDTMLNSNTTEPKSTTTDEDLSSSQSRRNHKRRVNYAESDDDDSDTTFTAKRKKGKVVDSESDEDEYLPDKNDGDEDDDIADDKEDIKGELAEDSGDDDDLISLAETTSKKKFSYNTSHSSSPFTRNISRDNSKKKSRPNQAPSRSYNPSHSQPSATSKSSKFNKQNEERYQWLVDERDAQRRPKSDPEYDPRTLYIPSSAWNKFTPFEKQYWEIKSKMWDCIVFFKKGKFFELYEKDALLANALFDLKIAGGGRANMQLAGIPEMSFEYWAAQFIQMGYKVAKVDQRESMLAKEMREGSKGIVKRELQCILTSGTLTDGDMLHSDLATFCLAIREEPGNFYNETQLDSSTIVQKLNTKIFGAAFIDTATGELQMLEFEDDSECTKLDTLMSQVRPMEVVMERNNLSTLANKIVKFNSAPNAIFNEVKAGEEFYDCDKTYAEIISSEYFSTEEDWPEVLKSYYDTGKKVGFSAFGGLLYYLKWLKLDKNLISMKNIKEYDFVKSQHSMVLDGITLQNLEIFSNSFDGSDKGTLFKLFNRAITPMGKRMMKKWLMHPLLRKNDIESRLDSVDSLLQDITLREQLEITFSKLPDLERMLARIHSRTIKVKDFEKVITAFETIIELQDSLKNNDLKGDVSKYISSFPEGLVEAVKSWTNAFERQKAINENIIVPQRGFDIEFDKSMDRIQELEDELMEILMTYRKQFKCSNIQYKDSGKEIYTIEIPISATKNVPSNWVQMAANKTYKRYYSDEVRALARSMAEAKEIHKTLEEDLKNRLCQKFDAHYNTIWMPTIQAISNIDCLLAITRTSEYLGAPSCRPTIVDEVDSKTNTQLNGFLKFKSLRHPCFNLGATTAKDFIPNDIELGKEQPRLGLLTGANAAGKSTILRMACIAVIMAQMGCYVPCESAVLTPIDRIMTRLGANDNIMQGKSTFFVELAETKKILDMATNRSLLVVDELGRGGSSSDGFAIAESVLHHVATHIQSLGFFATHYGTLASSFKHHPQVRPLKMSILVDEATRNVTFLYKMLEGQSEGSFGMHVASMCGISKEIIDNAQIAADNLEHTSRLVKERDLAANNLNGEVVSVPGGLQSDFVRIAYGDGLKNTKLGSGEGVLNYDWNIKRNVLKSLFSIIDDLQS

binding result (Msh2-Msh6)	Binder	binding result (SEC)
binds	Wild-type PCNA (S. cerevisiae, encoded by POL30) (natural protein, biotinylated when bound to the SPR chip (site not stated)) MLEAKFEEASLFKRIIDGFKDCVQLVNFQCKEDGIIAQAVDDSRVLLVSLEIGVEAFQEYRCDHPVTLGMDLTSLSKILRCGNNTDTLTLIADNTPDSIILLFEDTKKDRIAEYSLKLMDIDADFLKIEELQYDSTLSLPSSEFSKIVRDLSQLSDSINIMITKETIKFVADGDIGSGSVIIKPFVDMEHPETSIKLEMDQPVDLTFGAKYLLDIIKGSSLSDRVGIRLSSEAPALFQFDLKSGFLQFFLAPKFNDEE	binds
binds	PCNA-L68S (natural protein, S. cerevisiae, biotinylated when bound to the SPR chip (site not stated)) MLEAKFEEASLFKRIIDGFKDCVQLVNFQCKEDGIIAQAVDDSRVLLVSLEIGVEAFQEYRCDHPVTSGMDLTSLSKILRCGNNTDTLTLIADNTPDSIILLFEDTKKDRIAEYSLKLMDIDADFLKIEELQYDSTLSLPSSEFSKIVRDLSQLSDSINIMITKETIKFVADGDIGSGSVIIKPFVDMEHPETSIKLEMDQPVDLTFGAKYLLDIIKGSSLSDRVGIRLSSEAPALFQFDLKSGFLQFFLAPKFNDEE	
binds	PCNA-F254L (natural protein, S. cerevisiae, biotinylated when bound to the SPR chip (site not stated)) MLEAKFEEASLFKRIIDGFKDCVQLVNFQCKEDGIIAQAVDDSRVLLVSLEIGVEAFQEYRCDHPVTLGMDLTSLSKILRCGNNTDTLTLIADNTPDSIILLFEDTKKDRIAEYSLKLMDIDADFLKIEELQYDSTLSLPSSEFSKIVRDLSQLSDSINIMITKETIKFVADGDIGSGSVIIKPFVDMEHPETSIKLEMDQPVDLTFGAKYLLDIIKGSSLSDRVGIRLSSEAPALFQFDLKSGFLQFFLAPKLNDEE	binds
binds	PCNA-E143K (natural protein, S. cerevisiae, biotinylated when bound to the SPR chip (site not stated)) MLEAKFEEASLFKRIIDGFKDCVQLVNFQCKEDGIIAQAVDDSRVLLVSLEIGVEAFQEYRCDHPVTLGMDLTSLSKILRCGNNTDTLTLIADNTPDSIILLFEDTKKDRIAEYSLKLMDIDADFLKIEELQYDSTLSLPSSKFSKIVRDLSQLSDSINIMITKETIKFVADGDIGSGSVIIKPFVDMEHPETSIKLEMDQPVDLTFGAKYLLDIIKGSSLSDRVGIRLSSEAPALFQFDLKSGFLQFFLAPKFNDEE	binds
binds	PCNA-K13E (natural protein, S. cerevisiae, biotinylated when bound to the SPR chip (site not stated)) MLEAKFEEASLFERIIDGFKDCVQLVNFQCKEDGIIAQAVDDSRVLLVSLEIGVEAFQEYRCDHPVTLGMDLTSLSKILRCGNNTDTLTLIADNTPDSIILLFEDTKKDRIAEYSLKLMDIDADFLKIEELQYDSTLSLPSSEFSKIVRDLSQLSDSINIMITKETIKFVADGDIGSGSVIIKPFVDMEHPETSIKLEMDQPVDLTFGAKYLLDIIKGSSLSDRVGIRLSSEAPALFQFDLKSGFLQFFLAPKFNDEE	binds
binds	PCNA-C22Y (natural protein, S. cerevisiae, biotinylated when bound to the SPR chip (site not stated)) MLEAKFEEASLFKRIIDGFKDYVQLVNFQCKEDGIIAQAVDDSRVLLVSLEIGVEAFQEYRCDHPVTLGMDLTSLSKILRCGNNTDTLTLIADNTPDSIILLFEDTKKDRIAEYSLKLMDIDADFLKIEELQYDSTLSLPSSEFSKIVRDLSQLSDSINIMITKETIKFVADGDIGSGSVIIKPFVDMEHPETSIKLEMDQPVDLTFGAKYLLDIIKGSSLSDRVGIRLSSEAPALFQFDLKSGFLQFFLAPKFNDEE	binds
binds	PCNA-C81R (natural protein, S. cerevisiae, biotinylated when bound to the SPR chip (site not stated)) MLEAKFEEASLFKRIIDGFKDCVQLVNFQCKEDGIIAQAVDDSRVLLVSLEIGVEAFQEYRCDHPVTLGMDLTSLSKILRRGNNTDTLTLIADNTPDSIILLFEDTKKDRIAEYSLKLMDIDADFLKIEELQYDSTLSLPSSEFSKIVRDLSQLSDSINIMITKETIKFVADGDIGSGSVIIKPFVDMEHPETSIKLEMDQPVDLTFGAKYLLDIIKGSSLSDRVGIRLSSEAPALFQFDLKSGFLQFFLAPKFNDEE	
binds	PCNA-K217E (natural protein, S. cerevisiae, biotinylated when bound to the SPR chip (site not stated)) MLEAKFEEASLFKRIIDGFKDCVQLVNFQCKEDGIIAQAVDDSRVLLVSLEIGVEAFQEYRCDHPVTLGMDLTSLSKILRCGNNTDTLTLIADNTPDSIILLFEDTKKDRIAEYSLKLMDIDADFLKIEELQYDSTLSLPSSEFSKIVRDLSQLSDSINIMITKETIKFVADGDIGSGSVIIKPFVDMEHPETSIKLEMDQPVDLTFGAKYLLDIIEGSSLSDRVGIRLSSEAPALFQFDLKSGFLQFFLAPKFNDEE	binds
